Results reported in patent US20250034594A1, “RNA-GUIDED GENOME RECOMBINEERING AT KILOBASE SCALE” (THE BOARD OF TRUSTEES OF THE LELAND STANFORD JUNIOR …, priority 2021, published 2025).

What was measured:
Format in all cases: cell-based
gene editing with dCas9 = experiment: Screen of 322 new SSAP proteins, gene editing activity with dCas9 (Table 5); design: dCas9 with SSAP activity: scale not given here
Text: (§1) 322 new SSAP proteins were identified from sequence data, synthesized, and screened for activity with Cas9 and dCas9. Gene editing activities are shown below in Table 5, followed by amino acid sequences of the proteins.

[1] = tested on: gene editing with Cas9 and dCas9; experiment: Screen of 322 new SSAP proteins, activity across all experiments (Cas9 and dCas9, Table 5); design: scale not given here
Text: as §1

gene editing with Cas9 = experiment: Screen of 322 new SSAP proteins, gene editing activity with Cas9 (Table 5); design: Cas9 with SSAP activity: scale not given here
Text: as §1

Row | Molecule | dCas9 with SSAP activity (gene editing with dCas9) | dCas9 with SSAP activity (normalized) (gene editing with dCas9) | Activity across all experiments [1] | Cas9 with SSAP activity (gene editing with Cas9) | Cas9 with SSAP activity (normalized) (gene editing with Cas9)
1 | SSAP_113: SEQ ID NO: 282; Acinetobacter sp. RIT592 (protein, listed as Acinetobacter sp.) ADLKNKLANKAAGTVTKTSPNAGMKQLMKSMSKEIEAALPSHMSSERFQRVALTAFGNNPKLMNCDPMSFIAAMMDSAQLGLEPNTPLGQAYLIPYGTKVQFQVGYKGLLELALRSGKIKTLYAHEVRENDTFEVKYGLHQDLIHEPVLKGNRGEVIGYYAVYHLDTGGHSFVFMTKDEVLEHAKGKSKTFNNGPWQTDFDAMAKKTVIKQLLKYAPLSIEMQKAVSSDETVKSKIDEDMSLVVDESDSIEANFEIKEDEDGQLDVYVK | −3.134 | −3.818 | −3.431 | −3.728 | −3.241
2 | SSAP_265: SEQ ID NO: 434; Clostridium coskatii (protein, listed as Clostridium coskatii) SDKKMVVLNESHTMLNKLLETKQEALPKDFNKARFLQNCMTVLQDTKGIEQCQPITVARTMLKGAFLGLDFFNKECYAIPYKDNLQFQTDYKGEIKLAKKYSFNPIKDIYAKIVRQGDDFQEAIINGQQTINFTPVPFNNGEIIGAFAVCLFQDGSMLYETMAKQEIENTRKNFSKAPNSPAWTKTPGEMYKKTVLRRLCKLIELDFDSVECKKVYNETSDFEFENQQHEVSNFDKKDIDEDKIVEADVEVQDDNENNVPEDGE | −3.182 | −0.478 | −2.057 | −0.932 | −0.510
3 | SSAP_249: SEQ ID NO: 418; environmental Halophage eHP-30 (protein, environmental Halophage eHP-30) TEQNQTPAKTESKSPIKAQLYKDNVQQRFQELLGERASAFMTSVMSVVKDNDQLSQAEPSSVLNAAMTAATLDMPIDNNLGMAYIVPYKDGKSGKTYAQFQLGYKGFIQLAQRSGQFKTISATPVRQGQIVTADPLRGYEFDFTQGQDKEVVGYAAYFALLNGFEKTLYMSKAEMEQHAASYAAGYKKGYSNWNRKFDEMALKTVIKQLLSKYAPLSVDMQKAQQTDQTVSVEEPNAIEQQEAAPEIDASSNNNQNQ | −3.279 | −0.575 | −3.156 | −3.033 | −0.543
4 | SSAP_320: SEQ ID NO: 489; Pseudoalteromonas sp. MQS005 (protein, listed as Pseudoalteromonas sp.) SISQQDYENLLYSKLYECESQYQAYLAEHNEKLNFNAELNYMYKAVMSGVGIEGGFPYTPLESIVESFLKAAKLGLSLDPSEQFCFLRSQYDHSTGLYHTELGLGYKGVLHLAYRSGKVKQIVSNVFYNKDNFQFNGPNSKVTHTMTVLSTSARGNLAGGYCQTELVDGSFIVTVMPPEEILAIEEQGKSVGNPAWLSAHVNQMREKTLILRHWKTLYPAIYSSSLLDSAQIFDDECEEFPFSSPSQGFSESQTIGSY | −3.288 | −0.449 | −2.305 | −1.322 | −0.932
5 | SSAP_273: SEQ ID NO: 442; Virgibacillus (multispecies) (protein, listed as Virgibacillus sp.) ATNDSVKNQIANKNQGSNQVNPNNLGLKQLLSTPTMRKKFDEVLDKKAPQFMSSLLNLYSNDSYLQKAEPMSVVTSALVAATLDLPIDKNLGYAWIVPYGGKAQFQLGYKGYIQLALRTGQYRNINVIEVYEGELKSFNRLTEEMELDFEQKQSDKVIGYTGYFELINGFRKTVYWSKEEIEKHKKRFSKSDFGWKKDWDAMAKKTVIRNMLNKWGILSIDMQKGIVEDNKDPIEKANEFDEQDIIEADFSEVNDDQEIDFSDAQ | 1.896 | 2.101 | 0.121 | −1.654 | −0.724
6 | SSAP_132: SEQ ID NO: 301; Enterocloster clostridioformis (protein, listed as Enterocloster clostridioformis) GIDVKHELEKRAAGQDKPVKLTRNMTIADMVKALEPEIKRALPAILTPERFTRMALSAVNNTPELANCTPMSFIAALMNAAQLGLEPNTPLGQAYLIPYKNKGTLECQFQLGYKGLIDLAYRTGQIQIIQAQAVREFDYFEYQYGLDSRLVHKPGNEERGQITFIYGLFKLSNGGYGFEVSNKAEMDAFAAKYSKSFGSKYSPWTEDYESMAKKTVIKRALKYAPVSSDFQKALSLDETVKSEIAVDMSEIRNDCIPADMGTEAA | −3.318 | −0.536 | −5.320 | −7.323 | −1.345
7 | SSAP_95: SEQ ID NO: 264; Proteus terrae (protein, listed as Proteus terrae) SNPPLAQADLQKTQGTEVREKTKDQMLVEFINKPNMKAQLAAALPRHMAPDRMIRIVTTEIRKTPELANCDMQSFVGAVVQCSQLGLEPGNALGHAYILPFEKKRKQGNQWVTVRTDAQLIIGYRGMIDLARRSGQIVSISARTVRQGDSFHFEYGLNENLTHVPGENEDSPITHVYAVARLKDGGVQFEVMTHNQIEKVRTSSKAGQNGPWVSHWEEMAKKTVIRRLFKYLPVSIEMQKAVILDEKAEANVDQENSSVFEGEFEEVGQGA | −3.325 | −0.539 | −1.672 | −0.020 | −0.011
8 | SSAP_26: SEQ ID NO: 195 (protein) TVQLVQPRNSDEYDFDQTKLDLIKRTICKGATNDELQLFIHACKRTGLDPFMRQIFAVKRWDSSTKKEIMTIQTGIDGYRLIADRTGKYAPGKDTEFGYDNKGNIRWAKAYIKKMTPDGQWHEISAIAFWEEYVQTTREGKSTLFWLKKSHIMLSKCTEALALRKTFPAERSGIYTKEEMAQEFSPLEEHLVERIAASRNDQGRS | −3.399 | −0.852 | −1.354 | 0.692 | 1.723
9 | SSAP_57: SEQ ID NO: 226; Pirellula sp. SH-Sr6A (protein, listed as Pirellula sp.) SEATKEAKPETAIAKKPNGIKDWLKSDALKTQIASVAPKHMAPERVMRIALNAVSRTPKLADCTPESFMRCLLDLSSWGLVPDGRHAHLIPYGTECTLVLDYKGLVTLAYRSGWVKKIHADVVFEGDIFVYSLGTVCQHIPWEFRDDANKPEHKGHFRAAYCVVTMADGIEKHEVMTASEIDAIKAKSRSGNSGPWKDHYTEMAKKTVYRRASKWLPLSPEQADAMERDDDRIIDAVSVAVTQRLSKAAMPLIGANETGDTE | −3.405 | −0.557 | −3.391 | −3.376 | −0.549
10 | SSAP_96: SEQ ID NO: 265; Plesiomonas shigelloides (protein, Plesiomonas shigelloides) SNQRPPIATADLQKAQSQPPAAKPEQNLINFINQPSMKSQIAAALPRHMAPERMIRIITTEIRKTPKLATCDVQSFIGAVVQCSQLGLEPGGGLGHAYLLPFGNGKAESGKPNVQLIIGYRGMIDLARRSGQIVSISSRIVREGDQFHYEYGLNETLKHVPGDNESAPITHVYAVAKLKDGGTQFEVMSFNEIEKIRGQSKAGNDGPWIKHWEEMAKKTVIRRLFKYLPVSIEMQRAVILDEKAEADIEQDNASIIGAEYSVVENAA | −3.416 | −1.995 | −1.869 | −0.322 | −1.581
11 | SSAP_169: SEQ ID NO: 338; Streptomyces showdoensis (protein, listed as Streptomyces showdoensis) TSDARNAVARRAANVGQVEQAGEQPKPTMAQQIERMKPEIARALPKHMDADRIARIALTLIRKNPDLANCTTESFLGALMTCSQLGFEPGSPTQEAYIIPRKGQAEFQLGYQGMVTLFYQHPMASSVKVETVRENDYFEHEEGLEERLIHRPFADGPRGKAIAYYSVARLINGGRTFKVMYPAEIEERRQKLPSKNSPAWRDNYDEMAKKTVLRNHFKALPKSAELARALAHDGTVRTDWQPDAIDVPPEYLSEPQRPELEAGAQ | −3.497 | −0.528 | −2.669 | −1.842 | −1.968
12 | SSAP_290: SEQ ID NO: 459; Anaerovirgula multivorans (protein, Anaerovirgula multivorans) DAKHLTVVHQNLNTLLKAKADALPKGFNQTRFLQNCMTVLQDTKDIESVEPKSVARTMLKGAFLGLDFFNKECYAIVYNKKAGNSWIKTLEFQTDYKGEIKLAKKYSINTIKDIYAKLVREGDEFEEGVKDGKQVINFKPKPFNNNKILGAFAVAYYENGSMIYDTMSVEEIESVKKAYAKADKEGKYSKAWIESTGEMYKKTVLRRLCKLIELDFDTIEQKQAFDEGSGMEFKQEGKTDKPKSSLEAEFVEAEYEEVEESETSEVVEE | −3.506 | −0.681 | −2.336 | −1.166 | −0.249
13 | SSAP_237: SEQ ID NO: 406; Paenibacillus popilliae ATCC 14706 (protein, listed as Paenibacillus popilliae) STSHLLTIHNNLEKLIDSKREAMPKSFNKTRFLQNCMTVLQDTKDVGKCDPQSVARTLLKGAFLGLDFFNKECYAITYGGSVQFQTDYKGEKKLAKKYSVRPVKDIYAKLVREGDEFIEEIKDGQPTVQFKPLPFNDSEIKGAFAVSLFEDDGLAYEVMSVAEIELTRKNYSKQPNGQAWVKSKGEMYKKTVLRRLCKNIELDFDTIEQAQAFEDSSDFEFNKEPKQAQQSPLNPQATVIDAEYEEVKEESDNETNQE | −3.513 | −0.512 | −5.493 | −7.473 | –
